Data published in US20050214871A1.

Biological target: ligands present on the membranes of early apoptotic cells
Assay: flow cytometry on anti-CD95-treated Jurkat E6-1 cells, streptavidin-PE detection

Question: For “human soluble CD163, biotinylated (sCD163-biotin) (from UniProt Q86VB7 42-1045)”, which percent of early apoptotic Jurkat E6-1 cells binding sCD163-biotin is on record?
Answer: The percent of early apoptotic Jurkat E6-1 cells binding sCD163-biotin was over 50%.
